From patent US20240345090A1, “EARLY DETECTION OF INNATE IMMUNE DYSFUNCTION AND TREATMENT OF CONDITIONS ASSOCIATED THEREWITH” (UNIVERSITY OF FLORIDA RESEARCH FOUNDATION, INCORPORATED, priority 2021, published 2024)

Tested on: CD14+ monocytes
Assay: Flow cytometry count of TH+ monocytes after in vitro treatment
Assay type: cell-based, human
Conditions: healthy donor monocytes, 2 million per well, 4 hours; TPA 100 ng/ml, TNFα 17 ng/ml, IL6 17 ng/ml, XPro1595 50 ng/ml; n=3 per group
Description: Monocytes were isolated from total PBMCs prepared as described above^51 using negative selection (Biolegend, 480048) per manufacturer's instructions. Total PBMCs were Fc-blocked to reduce nonspecific binding, followed by incubations with biotin-conjugated antibody cocktail containing antibodies against all subsets except CD14 (negative selection), followed by incubation with magnetic-Avidin beads, allowing all subsets other than CD14+ monocytes to be bound to the magnet. Monocyte purity/enrichment was routinely verified to confirm that the final cell population was greater than 95% pure CD14+ cells (FIG. S2). CD14+ monocytes were collected from the supernatant fraction, washed, counted and density adjusted such that 2 million CD14+ monocytes were seeded per well (FIG. 5A) and treated for 4 hours with vehicle, TPA (100 ng/ml, Biolegend, 755802)^7, TNFα (17 ng/mL, Biolegend, 570102)^61, XPro1595 (50 ng/ml), or IL6 (17 ng/mL) in an ultra-low-adherence 6-well plate (Corning, 3471) to prevent adherence. Suspended cells from each treatment group were aspirated and placed in a 15 ml conical tube, with any remaining adherent cells detached by incubation with 700 uL Accumax solution for 3 minutes (Innovative Cell Technologies, AM105) and added to suspended cells. […]

B1: TPA: tissue plasminogen activator, positive control for increased monocyte TH expression (Biolegend, 755802) (protein, UniProt P00750 36-562, looked up)
Tissue-type plasminogen …: SYQVICRDEKTQMIYQQHQSWLRPVLRSNRVEYCWCNSGRAQCHSVPVKSCSEPRCFNGGTCQQALYFSDFVCQCPEGFAGKCCEIDTRATCYEDQGISYRGTWSTAESGAECTNWNSSALAQKPYSGRRPDAIRLGLGNHNYCRNPDRDSKPWCYVFKAGKYSSEFCSTPACSEGNSDCYFGNGSAYRGTHSLTESGASCLPWNSMILIGKVYTAQNPSAQALGLGKHNYCRNPDGDAKPWCHVLKNRRLTWEYCDVPSCSTCGLRQYSQPQFRIKGGLFADIASHPWQAAIFAKHRRSPGERFLCGGILISSCWILSAAHCFQERFPPHHLTVILGRTYRVVPGEEEQKFEVEKYIVHKEFDDDTYDNDIALLQLKSDSSRCAQESSVVRTVCLPPADLQLPDWTECELSGYGKHEALSPFYSERLKEAHVRLYPSSRCTSQHLLNRTVTDNMLCAGDTRSGGPQANLHDACQGDSGGPLVCLNDGRMTLVGIISWGLGCGQKDVPGVYTKVTNYLDWIRDNMRP
  number of TH+ monocytes, fold change relative to vehicle: significant increases in TH-expressing monocytes relative to vehicle
